From patent US20070207967A1 (CTT CANCER TARGETING TECHNOLOGIES, published 2007) come the findings set out here.

The chains are these.
T1: pro-MMP-2 (UniProt P08253 30-660, limits assumed)
T1 sequence (looked up): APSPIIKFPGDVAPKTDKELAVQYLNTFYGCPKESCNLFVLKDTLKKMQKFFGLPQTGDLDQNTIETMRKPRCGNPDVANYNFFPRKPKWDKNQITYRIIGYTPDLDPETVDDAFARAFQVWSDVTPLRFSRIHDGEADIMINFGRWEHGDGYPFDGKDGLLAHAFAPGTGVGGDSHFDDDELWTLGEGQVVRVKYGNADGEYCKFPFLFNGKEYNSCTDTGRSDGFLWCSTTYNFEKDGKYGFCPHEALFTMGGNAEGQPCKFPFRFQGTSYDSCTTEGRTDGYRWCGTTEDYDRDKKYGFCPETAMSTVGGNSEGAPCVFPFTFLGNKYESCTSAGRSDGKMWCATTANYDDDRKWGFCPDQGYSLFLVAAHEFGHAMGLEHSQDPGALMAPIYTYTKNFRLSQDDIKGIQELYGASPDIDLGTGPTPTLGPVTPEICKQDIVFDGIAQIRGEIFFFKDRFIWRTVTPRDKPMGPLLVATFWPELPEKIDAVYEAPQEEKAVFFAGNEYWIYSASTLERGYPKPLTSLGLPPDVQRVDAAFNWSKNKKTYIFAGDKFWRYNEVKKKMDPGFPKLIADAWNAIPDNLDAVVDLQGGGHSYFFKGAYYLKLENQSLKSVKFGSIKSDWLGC

B1: fibronectin-derived peptide TTPNSLLVSWQPPRARIT (peptide)
peptide: TTPNSLLVSWQPPRARIT
notes: Synthesized on a cellulose membrane (pepspot); also called PPC-like fibronectin peptide
B2: integrin β5 I-EGF2+3 fragment (Glu476-Asn563) with N-terminal His6-tag (receptor, UniProt P18084 499-586, looked up)
chain: ECQDGENQSVYQNLCREAEGKPLCSGRGDCSCNQCSCFESEFGKIYGPFCECDNFSCARNKGVLCSGHGECHCGECKCHAGYIGDNCN
modifications: biotinylated where used as the labelled ligand
notes: range 476-563; also called I-EGF2+3 fragment of β5 integrin; biotinylated β5 I-EGF2+3; not shown: N-terminal His6-tag from the pHAT2 vector
B3: CRV phage (CRVYGPYLLC displayed on phage) (peptide)
peptide: CRVYGPYLLC
modifications: cysteine pairing not given here; also: displayed on phage as coat protein fusion
notes: also called phage carrying CRV
B4: pro-MMP-9 (purified human pro-matrix metalloproteinase-9) (enzyme, UniProt P14780 20-707, looked up)
chain: APRQRQSTLVLFPGDLRTNLTDRQLAEEYLYRYGYTRVAEMRGESKSLGPALLLLQKQLSLPETGELDSATLKAMRTPRCGVPDLGRFQTFEGDLKWHHHNITYWIQNYSEDLPRAVIDDAFARAFALWSAVTPLTFTRVYSRDADIVIQFGVAEHGDGYPFDGKDGLLAHAFPPGPGIQGDAHFDDDELWSLGKGVVVPTRFGNADGAACHFPFIFEGRSYSACTTDGRSDGLPWCSTTANYDTDDRFGFCPSERLYTQDGNADGKPCQFPFIFQGQSYSACTTDGRSDGYRWCATTANYDRDKLFGFCPTRADSTVMGGNSAGELCVFPFTFLGKEYSTCTSEGRGDGRLWCATTSNFDSDKKWGFCPDQGYSLFLVAAHEFGHALGLDHSSVPEALMYPMYRFTEGPPLHKDDVNGIRHLYGPRPEPEPRPPTTTTPQPTAPPTVCPTGPPTVHPSERPTAGPTGPPSAGPTGPPTAGPSTATTVPLSPVDDACNVNIFDAIAEIGNQLYLFKDGKYWRFSEGRGSRPQGPFLIADKWPALPRKLDSVFEERLSKKLFFFSGRQVWVYTGASVLGPRRLDKLGLGADVAQVTGALRSGRGKMLLFSGRRLWRFDVKAQMVDPRSASEVDRMFPGVPLDTHDVFQYREKAYFCQDRFYWRVSSRSELNQVDQVGYVTYDILQCPED
notes: Purified proenzyme in plate assays; endogenous pro-MMP-9 of HT1080 and THP-1 cells in the co-immunoprecipitations
B5: MMP-9 collagen binding domain (CBD), amino acids Gly204-Gly373 (other, UniProt P14780 223-392, looked up)
chain: GNADGAACHFPFIFEGRSYSACTTDGRSDGLPWCSTTANYDTDDRFGFCPSERLYTQDGNADGKPCQFPFIFQGQSYSACTTDGRSDGYRWCATTANYDRDKLFGFCPTRADSTVMGGNSAGELCVFPFTFLGKEYSTCTSEGRGDGRLWCATTSNFDSDKKWGFCPDQG
modifications: biotinylated with sulfo-NHS-LC-biotin in some experiments
notes: range 223-392; Vector-derived residues (start Met from the NdeI site) not described further; also called recombinant CBD; biotinylated CBD
B6: PPC peptide-bearing phage (CGYGRFSPPC displayed on phage) (peptide)
peptide: CGYGRFSPPC
modifications: cysteine pairing not given here; also: displayed on phage
notes: also called PPC phage; phage carrying PPC

The target in series [1] is B4. The experiment in a line: phage display selection; table of pro-MMP-9 binding peptide sequences, group I CBD-binding.
Series [2] concerns the target B5. The experiment in a line: pepspot membrane assay, chemiluminescence.
Series [3] concerns the molecule itself. The experiment in a line: solid phase assay, streptavidin-peroxidase.
The target in series [4] is T2, urea-denaturated human plasma vitronectin (human, UniProt P04004 20-478).
T2 construct: also called VN
T2 sequence (P04004 20-478 limits assumed): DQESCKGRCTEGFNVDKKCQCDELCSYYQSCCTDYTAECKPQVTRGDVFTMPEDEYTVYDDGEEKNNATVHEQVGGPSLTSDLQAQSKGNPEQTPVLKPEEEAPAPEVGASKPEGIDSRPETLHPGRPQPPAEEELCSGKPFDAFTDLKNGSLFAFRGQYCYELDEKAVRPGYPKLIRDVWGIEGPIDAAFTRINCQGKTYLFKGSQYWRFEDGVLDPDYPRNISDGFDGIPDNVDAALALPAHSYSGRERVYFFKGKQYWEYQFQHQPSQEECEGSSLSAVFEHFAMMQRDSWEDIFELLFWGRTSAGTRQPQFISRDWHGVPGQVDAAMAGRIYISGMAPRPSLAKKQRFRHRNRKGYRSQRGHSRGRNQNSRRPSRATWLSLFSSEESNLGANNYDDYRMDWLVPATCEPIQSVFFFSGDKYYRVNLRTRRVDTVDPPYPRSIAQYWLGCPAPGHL
The experiment in a line: solid phase assay, streptavidin-peroxidase.

In series [5] the target is B5. The experiment in a line: solid phase assay, streptavidin-peroxidase.
In a further series the target is T1, pro-MMP-2. The series can be described thus: phage binding assay.
The target of another series is pro-MMP-3 (UniProt P08254 18-477, limits assumed). The experiment in a line: phage binding assay.
pro-MMP-3, sequence (P08254 18-477 limits assumed): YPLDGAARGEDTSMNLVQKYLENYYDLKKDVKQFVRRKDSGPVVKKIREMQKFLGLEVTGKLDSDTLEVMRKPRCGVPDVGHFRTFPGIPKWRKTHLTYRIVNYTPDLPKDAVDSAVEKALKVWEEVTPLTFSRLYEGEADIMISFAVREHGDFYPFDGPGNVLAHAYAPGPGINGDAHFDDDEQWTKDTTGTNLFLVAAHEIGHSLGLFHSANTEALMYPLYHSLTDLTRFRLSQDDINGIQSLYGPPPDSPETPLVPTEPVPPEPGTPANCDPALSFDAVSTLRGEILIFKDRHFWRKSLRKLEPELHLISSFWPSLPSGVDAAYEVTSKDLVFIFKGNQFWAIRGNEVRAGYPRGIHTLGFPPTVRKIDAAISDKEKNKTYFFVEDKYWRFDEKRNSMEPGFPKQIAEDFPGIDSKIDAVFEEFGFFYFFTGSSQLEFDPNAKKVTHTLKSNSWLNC
Series [6] deals with B5. The experiment in a line: phage binding assay.
Series [7] has as its target T3, pro-MMP-9-ΔHC (Ala1-Gly424), pro-MMP-9 lacking the hinge region and the C domain (UniProt P14780 20-444).
T3 construct: range 20-444
The experiment in a line: phage binding assay (not shown).

For series [8], the target named is T4, αVβ3 integrin of HT1080 cells (human, UniProt P06756 31-1048; P05106 27-788).
T4 construct: whole, on cells
T4 sequence (P06756 31-1048, chain 1 of 2): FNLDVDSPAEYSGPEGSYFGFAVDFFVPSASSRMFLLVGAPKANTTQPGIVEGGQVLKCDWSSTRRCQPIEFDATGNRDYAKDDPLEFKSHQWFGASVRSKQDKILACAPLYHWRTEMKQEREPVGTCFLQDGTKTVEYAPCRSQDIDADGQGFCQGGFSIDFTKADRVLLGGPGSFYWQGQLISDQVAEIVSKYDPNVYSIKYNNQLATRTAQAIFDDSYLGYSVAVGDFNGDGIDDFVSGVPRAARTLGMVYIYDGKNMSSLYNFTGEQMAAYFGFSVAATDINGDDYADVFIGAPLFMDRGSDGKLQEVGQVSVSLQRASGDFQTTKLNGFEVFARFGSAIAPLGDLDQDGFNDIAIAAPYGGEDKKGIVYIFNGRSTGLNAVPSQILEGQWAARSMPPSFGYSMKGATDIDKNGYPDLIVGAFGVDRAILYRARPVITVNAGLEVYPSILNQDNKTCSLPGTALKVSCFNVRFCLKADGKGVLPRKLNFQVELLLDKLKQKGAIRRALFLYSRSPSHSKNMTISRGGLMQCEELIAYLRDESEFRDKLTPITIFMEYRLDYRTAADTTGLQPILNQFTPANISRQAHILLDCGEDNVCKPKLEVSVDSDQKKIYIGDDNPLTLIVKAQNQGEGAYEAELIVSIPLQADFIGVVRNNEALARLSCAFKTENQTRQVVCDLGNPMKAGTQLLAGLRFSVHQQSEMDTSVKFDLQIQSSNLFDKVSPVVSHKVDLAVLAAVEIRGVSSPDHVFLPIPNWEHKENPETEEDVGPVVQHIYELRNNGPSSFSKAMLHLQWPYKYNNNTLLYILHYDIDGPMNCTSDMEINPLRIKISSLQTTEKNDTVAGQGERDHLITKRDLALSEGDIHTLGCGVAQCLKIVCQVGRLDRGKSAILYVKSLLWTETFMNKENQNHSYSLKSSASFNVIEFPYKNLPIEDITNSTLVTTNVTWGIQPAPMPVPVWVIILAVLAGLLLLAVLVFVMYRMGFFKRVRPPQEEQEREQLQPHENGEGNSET
T4 sequence (P05106 27-788, chain 2 of 2): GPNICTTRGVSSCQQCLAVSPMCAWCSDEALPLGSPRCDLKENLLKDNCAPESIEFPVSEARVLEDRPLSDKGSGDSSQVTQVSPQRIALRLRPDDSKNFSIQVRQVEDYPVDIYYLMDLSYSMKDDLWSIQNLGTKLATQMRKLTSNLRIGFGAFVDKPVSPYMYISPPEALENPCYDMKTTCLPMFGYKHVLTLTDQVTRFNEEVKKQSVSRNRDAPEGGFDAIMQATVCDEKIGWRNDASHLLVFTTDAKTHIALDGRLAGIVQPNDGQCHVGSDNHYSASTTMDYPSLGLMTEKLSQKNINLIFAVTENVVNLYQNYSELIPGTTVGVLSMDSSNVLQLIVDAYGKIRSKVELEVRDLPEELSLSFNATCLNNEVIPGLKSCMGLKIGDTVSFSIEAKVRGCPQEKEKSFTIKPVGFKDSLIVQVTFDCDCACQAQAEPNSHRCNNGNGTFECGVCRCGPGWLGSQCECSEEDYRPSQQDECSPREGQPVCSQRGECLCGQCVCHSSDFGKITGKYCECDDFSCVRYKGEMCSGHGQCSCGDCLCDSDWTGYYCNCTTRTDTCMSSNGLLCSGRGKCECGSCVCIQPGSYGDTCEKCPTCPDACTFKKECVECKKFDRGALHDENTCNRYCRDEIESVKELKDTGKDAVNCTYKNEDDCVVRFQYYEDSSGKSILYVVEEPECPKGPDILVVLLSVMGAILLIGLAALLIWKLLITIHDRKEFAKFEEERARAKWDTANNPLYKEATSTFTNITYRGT
The series can be described thus: immunoprecipitation with anti-integrin antisera, western blot for MMP-9. (In general: Immunoblotting shows a protein as a band on a membrane.)

The target of another series is platelet integrin αIIbβ3 (UniProt P08514 32-1039; P05106 27-788). The series can be described thus: pro-MMP-9 on immobilized integrin, read out by biotinylated gelatin.
platelet integrin αIIbβ3, sequence (P08514 32-1039, chain 1 of 2): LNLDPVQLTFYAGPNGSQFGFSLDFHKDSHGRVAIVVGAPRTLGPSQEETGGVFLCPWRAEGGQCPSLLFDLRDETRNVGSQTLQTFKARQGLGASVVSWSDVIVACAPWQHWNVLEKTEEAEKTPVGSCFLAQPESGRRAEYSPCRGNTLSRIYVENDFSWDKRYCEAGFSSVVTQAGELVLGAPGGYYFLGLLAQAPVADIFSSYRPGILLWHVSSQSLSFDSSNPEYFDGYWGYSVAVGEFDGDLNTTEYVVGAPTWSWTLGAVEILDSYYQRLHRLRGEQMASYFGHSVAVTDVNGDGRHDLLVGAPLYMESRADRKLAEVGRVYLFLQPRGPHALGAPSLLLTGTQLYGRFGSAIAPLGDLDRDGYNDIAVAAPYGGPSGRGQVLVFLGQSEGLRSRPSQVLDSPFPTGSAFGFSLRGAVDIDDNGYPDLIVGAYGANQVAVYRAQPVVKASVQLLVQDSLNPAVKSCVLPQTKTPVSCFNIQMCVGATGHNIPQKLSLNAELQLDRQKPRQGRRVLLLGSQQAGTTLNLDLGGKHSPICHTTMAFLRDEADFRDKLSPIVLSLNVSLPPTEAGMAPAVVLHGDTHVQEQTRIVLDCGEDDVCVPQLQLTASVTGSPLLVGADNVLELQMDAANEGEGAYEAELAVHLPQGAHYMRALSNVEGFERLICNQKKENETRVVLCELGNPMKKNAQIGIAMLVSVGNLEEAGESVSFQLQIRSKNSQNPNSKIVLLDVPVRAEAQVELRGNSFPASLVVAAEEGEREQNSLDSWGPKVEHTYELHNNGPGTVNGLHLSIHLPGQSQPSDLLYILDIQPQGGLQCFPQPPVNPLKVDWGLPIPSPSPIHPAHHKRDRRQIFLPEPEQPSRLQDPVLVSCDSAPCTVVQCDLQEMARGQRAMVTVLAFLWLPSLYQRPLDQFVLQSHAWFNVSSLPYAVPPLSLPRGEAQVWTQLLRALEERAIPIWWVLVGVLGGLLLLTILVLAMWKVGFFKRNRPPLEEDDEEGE
platelet integrin αIIbβ3, sequence (P05106 27-788, chain 2 of 2): as the sequence (P05106 27-788, chain 2 of 2) above
The target in series [9] is T2, urea-denaturated human plasma …. The series can be described thus: solid phase binding assay (discussion).
Series [10] concerns the target B4. The series can be described thus: phage display selection; table of pro-MMP-9 binding peptide sequences, group I CBD-binding; (6) is the number of isolated phage.

Ends that are not written are not given here.

On to CGWGRYSPPC (cysteine pairing not given here; also: displayed on phage, selected by biopanning) [phage peptide CGWGRYSPPC], for which the binding result in series [1] is recorded as “binds”.

Regarding B1, the binding result in series [2] is “binds”.

Turning to B2, the binding result in [3], in series [4] and in series [5] was “no binding (tested: biotinylated fragment 2.5 µg/ml)” throughout.

For the molecule B3, the binding result with pro-MMP-2 was “no binding (tested: 20 ng/well; 10^8 transducing units/well)”; in the series with pro-MMP-3, “no binding (tested: 20 ng/well; 10^8 transducing units/well)”; in [6] it was “no binding (tested: 20 ng/well; 10^8 transducing units/well)”; in series [7], “no binding”.

Regarding B4, the binding result (in series [8]; with platelet integrin αIIbβ3) was “no binding” each time.

As to B5, the binding result in [9] is recorded as “binds”.

Consider CGFGRWQPPC (cysteine pairing not given here; also: displayed on phage, selected by biopanning) [phage peptide CGFGRWQPPC], for which the binding result in series [1] was “binds”.

Consider B6, for which the binding result in [10] is given as “binds”.
